The values below come from patent US20200277375A1 (ULTRAHUMAN FOUR, published 2020).

Experiment [1] has as its target T1, mouse CD47-Fc (mouse, UniProt Q61735 19-140, limits assumed).
T1 construct: Recombinant CD47-Fc; also called mCD47-Fc; mCD37-Fc [sic]; not shown: Fc part
T1 sequence (looked up): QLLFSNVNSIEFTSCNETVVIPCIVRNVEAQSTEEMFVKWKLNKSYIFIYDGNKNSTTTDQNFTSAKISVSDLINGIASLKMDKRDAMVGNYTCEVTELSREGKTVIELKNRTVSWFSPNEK
The experiment in a line: direct specificity ELISA, IgG 1 µg/ml, FIG. 5A. The text has this:
(§1) FIG. 5A-FIG. 5G. Binding specificity analyses for prioritized lead clones. Off-target homologue binding risk for mVH/mVL in IgG1 (FIG. 5A) and IgG1null (FIG. 5B) format and library-derived leads A-D5 (FIG. 5C), VH-A1/VL-B1 (FIG. 5D), F-E7 (FIG. 5E), D-H3 (FIG. 5F), and G-B6 (FIG. 5G) in IgG1null format was examined by direct ELISA on CD47-Fc orthologs and a panel of 14 human immunoglobulin superfamily proteins as labelled on each X-axis (“B” refers to blank). Binding to human, cyno and murine CD47-Fcs (h/c/mCD47-Fc) was performed at an IgG concentration of 1 μg/ml. Binding to all other proteins was performed at an IgG concentration of 10 μg/ml.
(§2) To ensure that that lead clones had not suffered from loss of target specificity during the mutation and reselection process; lead and control IgG1 clones were tested for binding to a panel of 14 purified human proteins from the immunoglobulin superfamily (FIG. 5).
A general note: An ELISA detects its analyte on a solid surface through an enzyme-linked reagent.

Experiment [2] concerns the target T2, human CD47 on cells (human CD47-transfected CHO-K1; HL60) (human, UniProt Q08722 19-323).
T2 construct: whole, on cells; also called human CD47+ cells; human CD47+HL60 cells
The experiment in a line: flow cytometry, human CD47-transfected CHO-K1, FIG. 6. The protocol:
(§3) FIG. 6A-FIG. 6C. Flow cytometric binding to human and cyno CD47+CHO-K1 cells. Commercial anti-CD47 antibody MS1991, human IgG1 (“I IgG1”) and IgG4 (“I IgG4”) Isotype controls, lead library-derived IgGs in both IgG1null (“IgG1N”) and IgG4(S228P) formats were examined for specific binding on cyno-transfected CHO-K1 cells (FIG. 6A), human-transfected CHO-K1 cells (FIG. 6B), and wild type (wt, i.e. untransfected) CHO-K1 cells (FIG. 6C). IgGs were tested at concentrations ranging from 24-100,000 ng/ml. Concentration-dependent binding was observed against both human and cyno cell lines for all CD47-specific antibodies but not Isotype controls.
(§4) Antibodies to CD47 were analysed for concentration-dependent binding at the cell surface via flow cytometry. CHO-K1 cells were stably transfected with either human, mouse or cyno CD47 full-length cDNAs. Anti-CD47 IgGs mVH/mVL, VH-A1/VL-B1, A-D5, G-B6, F-E7 and D-H3, and an isotype control IgG1 were then all tested in IgG1null and IgG4(S228P) formats, alongside a commercial mouse anti-human CD47 monoclonal MS1991, over a concentration range of 100,000-24 ng/ml for binding to human, cyno or wild type control (‘wt’, i.e. untransfected) CHO-K1.
(In general: In flow cytometry, cells or beads pass a laser one at a time.)

Experiment [3] concerns the target T3, cynomolgus monkey CD47 on transfected CHO-K1 cells (cynomolgus monkey, UniProt A0A5F8AK49 19-323 (rhesus entry)).
T3 construct: whole, on cells; also called cyno CD47+ cells
The experiment can be described thus: flow cytometry, cyno CD47-transfected CHO-K1, FIG. 6. The protocol: as §3, §4

The target in experiment [4] is T1, mouse CD47-Fc. The experiment can be described thus: direct titration ELISA on coated CD47-Fc, FIG. 3. The method, then: FIG. 3A-FIG. 3H. Direct titration ELISA for IgG binding to human, mouse and cyno CD47-Fc proteins. Chimeric anti-CD47 (mVH/mVL), library-derived clones in human IgG1 null format were titrated (in μg/ml) in a direct binding ELISA against human, mouse and cyno CD47-Fc proteins (FIG. 3A-FIG. 3H). […] Clone TTP lost almost all binding function.
To coat Greiner Bio-One High bind ELISA plates, target proteins were diluted to 1 μg/ml in carbonate buffer and added at 100 μl per well, at 4° C., o/n. Coated plates were washed 3× with PBS pH7.4, blocked with 1% BSA in PBS (380 μl/well) for 1 hr at RT, then washed 3× with PBS-Tween 20 (PBST). CD47 antibodies (100 μl/well; diluted in PBST) were then added and then incubated 1 hr at RT. Plates were then washed 3× with PBST and goat anti-human kappa chain-HRP added (100 μl/well) at RT, for 1 hr. Plates were then washed 3× with PBST and twice with PBS before the addition of 100 μl TMB per well. Reactions were stopped by adding 100 μl 2M H₂SO₄/well and OD was read on a plate reader at 450 nm.

Experiment [5] deals with T4, cynomolgus monkey CD47-Fc (cynomolgus monkey, UniProt A0A2K5X523 19-139).
T4 construct: Recombinant CD47-Fc; also called cyno CD47-Fc; cCD47-Fc; not shown: Fc part
The experiment in a line: direct specificity ELISA, IgG 1 µg/ml, FIG. 5.
Text: as §1, §2

The target in experiment [6] is T5, human CD47-Fc (human, UniProt Q08722 19-139).
T5 construct: Recombinant CD47-Fc; also called hCD47-Fc; not shown: Fc part
The experiment in a line: direct specificity ELISA, IgG 1 µg/ml, FIG. 5.
Text: as §1, §2

B1: mVH/mVL (chimeric VxP037) in human IgG1 format (antibody, V domains shown)
VH: EVQLQQFGAELVKPGASMKLSCKASGYTFTNYYVFWVKQRPGQGLEWIGDINPVNGDTNFNEKFKNKATLTVDKSSTTTYLQLSSLTSEDSAVYYCTRGGYTMDYWGQGTLVTVSS
VL: DVVMTQTPLSLSVSLGDQASISCRSSQSLVHSNGNTYLHWYLQKPGQSPKLLIYKVSYRFSGVPDRFSGSGSGTDFTLKISRVEAEDLGVYFCSQNTHVPRTFGQGTKVEIK
notes: also called mVH/mVL in IgG1
As to B1, the binding result in experiment [1] is “binds”.

B2: VH-A1/VL-B1 in human IgG1null format (antibody, V domains shown)
VH: EVQLVQSGAEVKKPGESLKISCKGSGYSFTNYYIFWVRQMPGKGLEWMGIINPVDGDTRYSPSFQGQVTISADKSISTAYLQWSSLKASDTAMYYCARGGFTMDYWGQGTLVTVSS
VL: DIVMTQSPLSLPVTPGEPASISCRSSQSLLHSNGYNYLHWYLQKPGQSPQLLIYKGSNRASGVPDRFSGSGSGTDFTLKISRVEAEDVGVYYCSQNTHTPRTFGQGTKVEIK
notes: Combines the two most humanized observed v-domains; IgG1null (L234A/L235A/G237A), kappa; also called VH-A1/VI-B1
In the case of B2, the “maximum MFI, fold over untransfected CHO-K1” value in experiment [2] and in experiment [3] was greater than 10 fold in each case. Also, the binding result in experiment [4] is “no binding”. In addition, the OD450 nm in experiment [5] and in experiment [6] was greater than 2 OD450 nm in each case.
